We go through 24 substances from patent US20240398963A1 (priority 2021, published 2024).

This data set is classed as physicochemical. The following applies: 10 mM PBS buffer (pH=7.4), 37° C., 100 rpm shaker; free drug by HPLC, average release per day. The protocol:
The drug release and stability experiments were run using the test compounds. About 2.5±1.0 mg/mL (with regard to conjugate) solution of each test compound was prepared with 10 mM PBS buffer (pH=7.4) in Millipore Amicon® Ultra-0.5 ml 30 k Ultrafiltration centrifuge tube. The solution was kept swelling for 1 h at room temperature and then placed in a shaker at 100 rpm, 37° C. for continuous experiment. At the same time point of each day, samples were centrifuged at 10000 rpm for 1 h. The aliquot was transferred to HPLC vial for analysis. An 0.4 mL of 10 mM PBS buffer was added into the centrifuge tube and continue the experiment.
For the HPLC analysis at each time point, the peak areas of all relevant peaks from the chromatograms were retrieved and the concentration of free drug was calculated. Average release of free drug was calculated based on the sum of free drug and numbers of experiment days. The computing equation is as below.
The sample degradation rate was calculated based on the concentration and degree of substitution (NMR) for conjugated drug with regard to the initial starting point of the experiment (at t=0). The computing equation is as below.
As for “Conjugate of HA and 5-aminopentyl (2-((8S,9S,10R,11S,13S,14S,17R)-11,17-dihydroxy-10,13-dimethyl-3-oxo-2,3,6,7,8,9,10,11,12,13,14,15,16,17-tetradecahydro-1H-cyclopenta[a]phenanthren-17-yl)-2-oxoethyl) carbonate [Example 90]”, the Release rate is recorded as 4.56 %/day. In turn, “Conjugate of CS and 2-((6αS,6βR,7S,8αS,8βS,11αR,12αS,12βS)-6β-fluoro-7-hydroxy-6α,8α,10,10-tetramethyl-4-oxo-1,2,4,6α,6β,7,8,8α,11α,12,12α,12β-dodecahydro-8βH-naphtho[2′,1′:4,5]indeno[1,2-d][1,3]dioxol-8β-yl)-2-oxoethyl 7-azaspiro[3.5]nonane-2-carboxylate [Example 49]” showed a Release rate of 0.42 %/day.

Substance “Conjugate of CS and 4-aminobutyl (2-((8S,9S,10R,13S,14S,17R)-17-hydroxy-10,13-dimethyl-3,11-dioxo-6,7,8,9,10,11,12,13,14,15,16,17-dodecahydro-3H-cyclopenta[a]phenanthren-17-yl)-2-oxoethyl) carbonate [Example 61]” returned a Release rate of 7.26 %/day. With “Conjugate of CS and 4-aminobutyl (2-((8S,9S,10R,11S,13S,14S,17R)-11,17-dihydroxy-10,13-dimethyl-3-oxo-6,7,8,9,10,11,12,13,14,15,16,17-dodecahydro-3H-cyclopenta[a]phenanthren-17-yl)-2-oxoethyl) carbonate [Example 63]”, the Release rate is 0.05 %/day. To “Conjugate of HA and 2-((8S,9S,10R,11S,13S,14S,17R)-11,17-dihydroxy-10,13-dimethyl-3-oxo-2,3,6,7,8,9,10,11,12,13,14,15,16,17-tetradecahydro-1H-cyclopenta[a]phenanthren-17-yl)-2-oxoethyl 6-aminohexanoate [Example 93]” belongs 7.67 %/day. As for “Conjugate of HA and 2-((8S,9R,10S,11S,13S,14S,16R,17R)-9-fluoro-11,17-dihydroxy-10,13,16-trimethyl-3-oxo-6,7,8,9,10,11,12,13,14,15,16,17-dodecahydro-3H-cyclopenta[a]phenanthren-17-yl)-2-oxoethyl 4-aminobutanoate [Example 44]”, the Release rate amounted to 1.12 %/day. With “Conjugate of CS and 2-((6S,8S,9S,10R,11S,13S,14S,17R)-11,17-dihydroxy-6,10,13-trimethyl-3-oxo-6,7,8,9,10,11,12,13,14,15,16,17-dodecahydro-3H-cyclopenta[a]phenanthren-17-yl)-2-oxoethyl 4-aminobutanoate [Example 43]”, the Release rate is listed as 1.07 %/day. Regarding “Conjugate of HA and 2-((8S,9S,10R,11S,13S,14S,17R)-11,17-dihydroxy-10,13-dimethyl-3-oxo-2,3,6,7,8,9,10,11,12,13,14,15,16,17-tetradecahydro-1H-cyclopenta[a]phenanthren-17-yl)-2-oxoethyl 4-aminobutanoate [Example 38]”, the Release rate is on record as 1.71 %/day. “Conjugate of HA and 5-aminopentyl (2-((6S,8S,9S,10R,11S,13S,14S,17R)-11,17-dihydroxy-6,10,13-trimethyl-3-oxo-6,7,8,9,10,11,12,13,14,15,16,17-dodecahydro-3H-cyclopenta[a]phenanthren-17-yl)-2-oxoethyl) carbonate [Example 86]” yielded a Release rate of 6.93 %/day.

“Conjugate of HA and 4-aminobutyl (2-((8S,9S,10R,11S,13S,14S,17R)-11,17-dihydroxy-10,13-dimethyl-3-oxo-2,3,6,7,8,9,10,11,12,13,14,15,16,17-tetradecahydro-1H-cyclopenta[a]phenanthren-17-yl)-2-oxoethyl) carbonate [Example 64]” displayed a Release rate of 7.61 %/day. In the case of “Conjugate of CS and 2-((8S,9S,10R,13S,14S,17R)-17-hydroxy-10,13-dimethyl-3,11-dioxo-2,3,6,7,8,9,10,11,12,13,14,15,16,17-tetradecahydro-1H-cyclopenta[a]phenanthren-17-yl)-2-oxoethyl 4-aminobutanoate [Example 41]”, the Release rate stood at 1.79 %/day.

“Conjugate of HA and 2-((8S,9S,10R,13S,14S,17R)-17-hydroxy-10,13-dimethyl-3,11-dioxo-2,3,6,7,8,9,10,11,12,13,14,15,16,17-tetradecahydro-1H-cyclopenta[a]phenanthren-17-yl)-2-oxoethyl 4-aminobutanoate [Example 40]”: the Release rate is on record as 2.49 %/day. In the case of “Conjugate of HA and 2-((8S,9S,10R,13S,14S,17R)-17-hydroxy-10,13-dimethyl-3,11-dioxo-2,3,6,7,8,9,10,11,12,13,14,15,16,17-tetradecahydro-1H-cyclopenta[a]phenanthren-17-yl)-2-oxoethyl 5-aminopentanoate [Example 77]”, the Release rate is on record as 4.81 %/day. As to “Conjugate of HA and 2-((8S,9S,10R,13S,14S,17R)-17-hydroxy-10,13-dimethyl-3,11-dioxo-2,3,6,7,8,9,10,11,12,13,14,15,16,17-tetradecahydro-1H-cyclopenta[a]phenanthren-17-yl)-2-oxoethyl 6-aminohexanoate [Example 94]”, the Release rate is reported as 2.85 %/day.

As to “Conjugate of HA and 5-aminopentyl (2-((8S,9S,10R,11S,13S,14S,17R)-11,17-dihydroxy-10,13-dimethyl-3-oxo-6,7,8,9,10,11,12,13,14,15,16,17-dodecahydro-3H-cyclopenta[a]phenanthren-17-yl)-2-oxoethyl) carbonate [Example 85]”, the Release rate came to 7.65 %/day. The substance “Conjugate of CS and 2-((6αS,6βR,7S,8αS,8βS,11αR,12αS,12βS)-6β-fluoro-7-hydroxy-6α,8α,10,10-tetramethyl-4-oxo-1,2,4,6α,6β,7,8,8α,11α,12,12α,12β-dodecahydro-8βH-naphtho[2′,1′:4,5]indeno[1,2-d][1,3]dioxol-8β-yl)-2-oxoethyl piperazine-1-carboxylate [Example 57]” displayed a Release rate of 0.23 %/day. Under “Conjugate of HA and 2-((6S,8S,9S,10R,11S,13S,14S,17R)-11,17-dihydroxy-6,10,13-trimethyl-3-oxo-6,7,8,9,10,11,12,13,14,15,16,17-dodecahydro-3H-cyclopenta[a]phenanthren-17-yl)-2-oxoethyl 4-aminobutanoate [Example 42]” stands 2.88 %/day. On to “Conjugate of HA and 2-((8S,9S,10R,11S,13S,14S,17R)-11,17-dihydroxy-10,13-dimethyl-3-oxo-6,7,8,9,10,11,12,13,14,15,16,17-dodecahydro-3H-cyclopenta[a]phenanthren-17-yl)-2-oxoethyl 6-aminohexanoate [Example 81]”, for which the Release rate came to 1.71 %/day.

Regarding “Conjugate of HA and 2-((8S,9S,10R,11S,13S,14S,17R)-11,17-dihydroxy-10,13-dimethyl-3-oxo-6,7,8,9,10,11,12,13,14,15,16,17-dodecahydro-3H-cyclopenta[a]phenanthren-17-yl)-2-oxoethyl 4-aminobutanoate [Example 36]”, the Release rate came out at 2.89 %/day. “Conjugate of CS and 2-((6αS,6βR,7S,8αS,8βS,11αR,12αS,12βS)-6β-fluoro-7-hydroxy-6α,8α,10,10-tetramethyl-4-oxo-1,2,4,6α,6β,7,8,8α,11α,12,12α,12β-dodecahydro-8βH-naphtho[2′,1′:4,5]indeno[1,2-d][1,3]dioxol-8β-yl)-2-oxoethyl 14-amino-3,6,9,12-tetraoxatetradecanoate [Example 51]” yielded a Release rate of 7.21 %/day. “Conjugate of HA and 5-aminopentyl (2-((8S,9S,10R,13S,14S,17R)-17-hydroxy-10,13-dimethyl-3,11-dioxo-2,3,6,7,8,9,10,11,12,13,14,15,16,17-tetradecahydro-1H-cyclopenta[a]phenanthren-17-yl)-2-oxoethyl) carbonate [Example 91]” showed a Release rate of 11.66 %/day. “Conjugate of CS and 4-aminobutyl (2-((8S,9R,10S,11S,13S,14S,16S,17R)-9-fluoro-11,17-dihydroxy-10,13,16-trimethyl-3-oxo-6,7,8,9,10,11,12,13,14,15,16,17-dodecahydro-3H-cyclopenta[a]phenanthren-17-yl)-2-oxoethyl) carbonate [Example 73]” showed a Release rate of 13.44 %/day. In turn, “Conjugate of CS and 4-aminobutyl (2-((8S,9R,10S,11S,13S,14S,16R,17R)-9-fluoro-11,17-dihydroxy-10,13,16-trimethyl-3-oxo-6,7,8,9,10,11,12,13,14,15,16,17-dodecahydro-3H-cyclopenta[a]phenanthren-17-yl)-2-oxoethyl) carbonate [Example 71]” registered a Release rate of 1.55 %/day. In turn, “Conjugate of HA and 2-((8S,9R,10S,11S,13S,14S,16S,17R)-9-fluoro-11,17-dihydroxy-10,13,16-trimethyl-3-oxo-6,7,8,9,10,11,12,13,14,15,16,17-dodecahydro-3H-cyclopenta[a]phenanthren-17-yl)-2-oxoethyl 4-aminobutanoate [Example 46]” yielded a Release rate of 2.95 %/day.
